{"source": "patent US5650301A", "about": "“Hirudin HV2 having a SN7LYS substitution, method of making, and method of use” (Transgene S.A., priority 1986, dated 1997)", "molecules": {"B1": {"name": "ILE THR TYR THRASP CYS THR GLU SER GLY GLN ASN LEU CYS LEU CYS GLU GLY SER ASN VAL CYS GLY LYS GLY ASN LYS CYS ILE LEU GLY SER ASN GLY LYS GLY ASN GLN CYS VAL THR GLY GLU GLY THR PRO LYS PRO GLU SER … (protein)", "chain": "ITYTDCTESGQNLCLCEGSNVCGKGNKCILGSNGKGNQCVTGEGTPKPESHNNGDFEEIPEEYLQ", "modifications": "printed: ILE THR TYR THRASP CYS THR GLU SER GLY GLN ASN LEU CYS LEU CYS GLU GLY SER ASN VAL CYS GLY LYS GLY ASN LYS CYS ILE LEU GLY SER ASN GLY LYS GLY ASN GLN CYS VAL THR GLY GLU GLY THR PRO LYS PRO GLU SER HIS ASN ASN GLY ASP PHE GLU GLU ILE PRO GLU GLU TYR LEU GLN", "notes": "recombinant hirudin HV2 variant in which the Asn^47 is replaced by a Lys, produced in yeast"}}, "key": {"[1]": {"test_system": "rat and rabbit plasma", "assay": "Anticoagulant activity in vitro in plasma, prolongation of the thrombin time", "conditions": "higher concentrations, compared with rHV2", "method": "(§1) b) The anticoagulant activity of the two hirudins is compared in vitro in rat and rabbit plasma in terms of prolongation of the thrombin time, and the anti-IIa effect is measured chromogenically."}, "[2]": {"target": "T1, bovine thrombin (Bos taurus, UniProt P00735)", "T1 construct": "The specific antithrombin activity (human and bovine thrombin) of the two recombinant hirudins", "assay": "Specific antithrombin activity, inhibition of proteolytic activity of thrombin on chromozyme", "format": "biochemical", "conditions": "stock solution 1 mg/ml in physiological saline", "method": "(§2) a) The specific antithrombin activity (human and bovine thrombin) of the two recombinant hirudins in physiological saline is determined on the basis of the inhibition of the proteolytic activity of thrombin on chromozyme.\n(§3) a) For a preparation of stock solution at a concentration of 1 mg/ml, the specific antithrombin activity of the two variants of hirudin with respect to human and bovine thrombins is expressed in Table 1 below: […]"}, "[3]": {"test_system": "hemorrhage in rabbits", "conditions": "rabbit, in vivo"}, "[4]": {"target": "T2, thrombin (Homo sapiens, UniProt P00734)", "assay": "Specific antithrombin activity, inhibition of proteolytic activity of thrombin on chromozyme", "format": "biochemical", "design": "The specific antithrombin activity (human and bovine thrombin) of the two recombinant hirudins", "method": "as §2, §3"}, "[5]": {"test_system": "bleeding time in rats", "conditions": "rat, in vivo"}, "[6]": {"test_system": "venous thrombosis in rats", "assay": "Wessler's model in rats", "format": "in vivo", "conditions": "RAT i.v. bolus, -5 min 40 s before stasis", "method": "(§4) e) The antithrombotic activity of the two variants of hirudin and of standard heparin is studied in Wessler's rabbit and rat model, with thromboplastin as thrombogenic agent, and in the model of stasis in rabbits (Fareed). The compounds are administered by continuous perfusion in rabbits and by i.v. bolus in rats.\nMale (CD-COBS) Sprague-Dawley rats weighing approximately 300 g were used. […] Two flexible ligatures were positioned 0.7 cm apart.\nThe test products, diluted in physiological saline, were injected in an i.v. bolus at 1 ml/kg, 5 min 40 s or 1 min (heparin) before the production of venous stasis. Forty seconds before this stasis, a thrombogenic agent (rabbit thromboplastin, E. Dade) was injected at a dose of 25 mg/ml/kg into the vein of the penis in the space of 30 seconds, measured very exactly. Ten seconds after the end of the injection, stasis was established by tightening the two ligatures, first the proximal and then the distal. The stasis was maintained for 10 minutes, and the thrombus was then removed, immersed in a 0.38% strength citrate solution, dried with general-purpose absorbent paper and weighed on the following day after drying for one hour at […]."}, "[7]": {"target": "T2, thrombin", "assay": "Inhibitory effect of crude yeast culture supernatants on thrombin activity (chromozyme TH)", "format": "biochemical", "conditions": "yeast culture supernatants after 48 h, compared with native HV2 (FIG. 2)", "method": "20 ml of culture (YNBG+0.5% casamino acids) at OD660 0.02 were seeded with each strain. After 48 h of agitation at 30° C. the cultures were centrifuged (5000 rpm, 5 min) and the supernatants assayed. A culture of TGY1sp4 pTG881 (plasmid not carrying the coding sequence for HV2) was used as a control.\nThe activity of the crude supernatants is measured in terms of their inhibitory effect with respect to thrombin activity (proteolytic activity on a synthetic substrate, chromozyme TH--Boehringer Mannheim)."}, "[8]": {"target": "T2, thrombin", "assay": "Kinetics of inhibition of human thrombin by purified hirudin variants (chromozyme PL)", "format": "biochemical", "design": "The specific antithrombin activity (human and bovine thrombin) of the two recombinant hirudins", "excerpt": "To study the kinetics of inhibition of thrombin by these variants, the theory of high affinity inhibitors, as described in J. W. WILLIAMS and J. F. MORRISON Methods in Enzymology 63 pp. 437-467, 1979, is used, since hirudin is a reversible inhibitor of thrombin.\nThe variants of hirudin used are purified to 95% and the Sigma pure human thrombin has a percentage activity, measured by titration of the active site, which is above 92%. The concentration of human thrombin is the same for all the measurements, namely 5.5×10^-9 M. The medium is an 0.05M sodium PIPES buffer, pH 7.9, 0.18M KCl and 0.1% PEG at 37° C. The thrombin substrate is Boehringer chromozyme PL. A preincubation time of 2 minutes is observed for the thrombin and hirudin, and the reaction is then initiated with the substrate.\nThe following table summarizes the values determined experimentally for the quantity of hirudin required for a 95% inhibition of the same quantity of human thrombin (5.5×10^-9 M)."}, "[9]": {"test_system": "thrombosis by blood stasis in rabbits", "assay": "Model of thrombosis by blood stasis in rabbits", "format": "in vivo", "conditions": "RABBIT i.v. perfusion", "method": "as §4\nMale New Zealand rabbits weighing 2.5 to 3 kg were used in this study. After intravenous anesthesia with pentobarbital sodium (30 mg/kg), the left carotid was cannulated and the two jugular veins were isolated; two slack ligatures were placed on each of them, at a distance of 2.5 cm from one another. The rabbits then received either physiological saline or solutions of hirudin or heparin in continuous perfusion for 30 minutes, at a flow rate of 2.5 ml/hour. Two minutes before the end of perfusion, arterial blood samples were drawn in order to determine the plasma levels of the anticoagulants. At the same time as the perfusion was stopped, stasis was established by tightening the four ligatures (first the proximal and then the distal). The stasis was maintained for 2 hours, the jugulars were then opened and the thrombi extracted, rinsed in physiological saline and weighed after blotting with filter paper."}, "[10]": {"test_system": "residual thrombin in the rat and rabbit plasma", "assay": "Anti-IIa effect in plasma, residual thrombin by chromogenic substrate", "format": "biochemical", "conditions": "above 60 ATU/ml, compared with rHV2", "method": "as §1"}, "[11]": {"test_system": "venous thrombosis in rabbits", "assay": "Wessler's model in rabbits (thromboplastin as thrombogenic agent)", "format": "in vivo, rabbit", "method": "as §4\nMale New Zealand rabbits weighing 2.5 to 3 kg were used in this study. After anesthesia by intravenous injection of pentobarbital sodium (30 mg/kg), the left carotid was cannulated and the two jugular veins were isolated; two slack ligatures were placed on each of them at a distance of 2.5 cm from one another. The rabbits then received either physiological saline or solutions of hirudin or heparin in continuous perfusion for 30 minutes at a flow rate of 2.5 ml/hour. Two minutes before the end of the perfusion, arterial blood samples were drawn in order to determine the plasma levels of the anti-coagulants. One minute before the end of the perfusion, human thromboplastin (Manchester Comparative Reagents Ltd), standardized according to M. Buchanan's procedure, was injected at a dose of 600 ug/kg during exactly 30 seconds into the aorta via the carotid. Thirty seconds later the perfusion was stopped and blood stasis was produced by tightening the ligatures on the two venous segments for 15 minutes. […]"}}}
{"molecule": "B1", "values": [{"measurement": "anticoagulant activity determined in terms of the thrombin time", "setting": "[1]", "result": "markedly superior"}, {"measurement": "specific antithrombin activity for bovine thrombin", "setting": "[2]", "result": "19,200 ATU/mg"}, {"measurement": "risk of hemorrhage", "setting": "[3]", "result": "less than those in animals treated with standard heparin"}, {"measurement": "specific antithrombin activity, results expected for human thrombin", "setting": "[4]; expected values", "result": "16,000 ATU/mg"}, {"measurement": "specific antithrombin activity for human thrombin", "setting": "[4]; stock solution 1 mg/ml in physiological saline", "result": "19,000 ATU/mg"}, {"measurement": "specific antithrombin activity", "setting": "[4]; summary value of the text, identical for the human and bovine thrombins", "result": "~19,000 ATU/mg"}, {"measurement": "prolongation of the bleeding time", "setting": "[5]", "result": "less than those in animals treated with standard heparin"}, {"measurement": "Antithrombotic effects, WESSLER", "setting": "[6]", "result": 160, "unit": "µg/kg"}, {"measurement": "inhibitory effect of crude supernatants with respect to thrombin activity", "setting": "[7]", "result": "at least equal to that of native HV2"}, {"measurement": "Quantity for attaining 95% inhibition of thrombin", "setting": "[8]; human thrombin 5.5×10^-9 M, PIPES pH 7.9, 37° C., chromozyme PL, 2 min preincubation", "result": "7.6 10^-9 M"}, {"measurement": "fold less hirudin than HV2 required for inhibiting the same quantity of human thrombin", "setting": "[8]; relative to hirudin HV2", "result": "approximately 4 fold"}, {"measurement": "Antithrombotic effects, STASIS", "setting": "[9]", "result": 47, "unit": "µg/kg/h"}, {"measurement": "further neutralizing the traces of residual thrombin", "setting": "[10]", "result": "more effective"}, {"measurement": "Antithrombotic effects, WESSLER", "setting": "[11]; RABBIT i.v. perfusion", "result": 20, "unit": "µg/kg/h"}, {"measurement": "antithrombotic activity", "setting": "[11]; continuous perfusion in rabbits, compared with rHV2 and heparin", "result": "superior to those of rHV2 and heparin"}]}
